According to patent EP4563596A1 (OncoSpear ApS, dated 2025):
Residue numbers refer to the chain shown, from its start.

B1: OS005 (antibody, human IgG1, kappa)
heavy: QVQLQESGPGLVKPSETLSLTCTVSGYSITSDYAWNWIRQFPGNKLEWMGYITYSGSTYYNPSLKSRVTISVDTSKNQFSLKLSSVTAADTATYYCVSGTYYFDYWGQGTTLTVSSASTKGPSVFPLAPSSKSTSGGTAALGCLVKDYFPEPVTVSWNSGALTSGVHTFPAVLQSSGLYSLSSVVTVPSSSLGTQTYICNVNHKPSNTKVDKKVEPKSCDKTHTCPPCPAPELVGGPSVFLLPPKPKDTLMISRTPEVTCVVVDVSHEDPEVKFNWYVDGVEVHNAKTKPPEEQYNSTLRVVSVLTVLHQDWLNGKEYKCKVSNKALPAPIEKTISKAKGQPREPQVYTLPPSRDELTKNQVSLTCLVKGFYPSDIAVEWESNGQPENNYKTTPLVLDSDGSFFLYSKLTVDKSRWQQGNVFSCSVMHEALHNHYTQKSLSLSPGK
light: DIVMTQSPSSLSASVGDRVTITCRASQSVSSDVAWFQQKPGKSPKPLIYYASNRYSGVPSRFSGSGSGTDFTLTISSLQAEDFAVYFCGQDYTSPRTFGGGTKLEIKRTVAAPSVFIFPPSDEQLKSGTASVVCLLNNFYPREAKVQWKVDNALQSGNSQESVTEQDSKDSTYSLSSTLTLSKADYEKHKVYACEVTHQGLSSPVTKSFNRGEC
B2: OS006 (antibody, human IgG1, kappa)
heavy: B1 heavy with V234L, S238D, L242F, P291R, L299Y, A329L, I331E, L395P
light: B1 light
B3: OS009 (antibody, human IgG1, kappa)
heavy: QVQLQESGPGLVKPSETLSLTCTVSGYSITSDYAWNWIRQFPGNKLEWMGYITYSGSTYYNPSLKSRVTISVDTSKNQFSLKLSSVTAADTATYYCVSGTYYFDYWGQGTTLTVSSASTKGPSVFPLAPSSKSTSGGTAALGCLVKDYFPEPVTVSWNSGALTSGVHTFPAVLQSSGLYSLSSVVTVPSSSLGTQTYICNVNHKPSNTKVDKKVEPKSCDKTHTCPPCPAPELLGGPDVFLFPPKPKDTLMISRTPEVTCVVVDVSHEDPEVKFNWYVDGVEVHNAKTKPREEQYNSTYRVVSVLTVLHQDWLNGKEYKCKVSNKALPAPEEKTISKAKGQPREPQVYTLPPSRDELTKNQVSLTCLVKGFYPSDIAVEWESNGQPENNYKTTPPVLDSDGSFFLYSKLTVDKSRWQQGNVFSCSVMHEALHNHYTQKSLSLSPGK
light: B1 light
B4: OS001 (antibody, human IgG1, kappa)
heavy: not shown
light: B1 light
B5: OS017 (antibody, human IgG1, kappa)
heavy: not shown
light: B1 light
modifications: afucosylated glycan (GlymaxX expression)

biological target: T1, CD16 F158 (FcγRIIIA) on Jurkat reporter cells (human, UniProt P08637 17-254); assay: cell-based or functional assay
T1 sequence (P08637 17-254): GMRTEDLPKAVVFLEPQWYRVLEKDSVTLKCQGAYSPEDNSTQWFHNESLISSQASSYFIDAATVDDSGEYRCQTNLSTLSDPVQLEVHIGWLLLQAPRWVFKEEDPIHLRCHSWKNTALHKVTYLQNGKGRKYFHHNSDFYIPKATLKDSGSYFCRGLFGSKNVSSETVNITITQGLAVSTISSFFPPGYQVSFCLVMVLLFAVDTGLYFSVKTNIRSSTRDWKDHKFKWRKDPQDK

Row | Binder | Relative EC50 ADCC (CD16 F158); target cells M2c macrophages
1 | B1 | 13 relative (normalized to OS001)
2 | B2 | 71 relative (normalized to OS001)
3 | B3 | 12 relative (normalized to OS001)
4 | B4 | 1 relative (normalized to OS001)
5 | B5 | 111 relative (normalized to OS001)

biological target: T2, CD16 V158 (FcγRIIIA) on Jurkat reporter cells (human, UniProt P08637 17-254); assay: cell-based or functional assay
T2 sequence (P08637 17-254 F176V): as the sequence (P08637 17-254) above, with F160V counted along it

Row | Binder | Relative EC50 ADCC (CD16 V158); target cells M2c macrophages
6 | B1 | 23 relative (normalized to OS001)
7 | B2 | 26 relative (normalized to OS001)
8 | B3 | 23 relative (normalized to OS001)
9 | B4 | 1 relative (normalized to OS001)
10 | B5 | 39 relative (normalized to OS001)

biological target: T1, CD16 F158 (FcγRIIIA) on Jurkat reporter …; assay: cell-based or functional assay; remark: another data set of the same source

Row | Binder | Relative EC50 ADCC F158 (low); target cells FlpIn293-hCD163
11 | B1 | 5.4 relative (EC50 OS001/EC50 construct)
12 | B2 | 2.5 relative (EC50 OS001/EC50 construct)
13 | B3 | 7 relative (EC50 OS001/EC50 construct)
14 | B4 | 1 relative (EC50 OS001/EC50 construct)
15 | B5 | 17.6 relative (EC50 OS001/EC50 construct)

biological target: T2, CD16 V158 (FcγRIIIA) on Jurkat reporter …; assay: cell-based or functional assay; remark: another data set of the same source

Row | Binder | Relative EC50 ADCC V158 (high); target cells FlpIn293-hCD163
16 | B1 | 2.2 relative (EC50 OS001/EC50 construct)
17 | B2 | 5.9 relative (EC50 OS001/EC50 construct)
18 | B3 | 7.6 relative (EC50 OS001/EC50 construct)
19 | B4 | 1 relative (EC50 OS001/EC50 construct)
20 | B5 | 11.2 relative (EC50 OS001/EC50 construct)

biological target: full length human CD163 on cells (human, UniProt Q86VB7 42-1156); assay: cell-based or functional assay
Sequence (Q86VB7 42-1156 limits assumed): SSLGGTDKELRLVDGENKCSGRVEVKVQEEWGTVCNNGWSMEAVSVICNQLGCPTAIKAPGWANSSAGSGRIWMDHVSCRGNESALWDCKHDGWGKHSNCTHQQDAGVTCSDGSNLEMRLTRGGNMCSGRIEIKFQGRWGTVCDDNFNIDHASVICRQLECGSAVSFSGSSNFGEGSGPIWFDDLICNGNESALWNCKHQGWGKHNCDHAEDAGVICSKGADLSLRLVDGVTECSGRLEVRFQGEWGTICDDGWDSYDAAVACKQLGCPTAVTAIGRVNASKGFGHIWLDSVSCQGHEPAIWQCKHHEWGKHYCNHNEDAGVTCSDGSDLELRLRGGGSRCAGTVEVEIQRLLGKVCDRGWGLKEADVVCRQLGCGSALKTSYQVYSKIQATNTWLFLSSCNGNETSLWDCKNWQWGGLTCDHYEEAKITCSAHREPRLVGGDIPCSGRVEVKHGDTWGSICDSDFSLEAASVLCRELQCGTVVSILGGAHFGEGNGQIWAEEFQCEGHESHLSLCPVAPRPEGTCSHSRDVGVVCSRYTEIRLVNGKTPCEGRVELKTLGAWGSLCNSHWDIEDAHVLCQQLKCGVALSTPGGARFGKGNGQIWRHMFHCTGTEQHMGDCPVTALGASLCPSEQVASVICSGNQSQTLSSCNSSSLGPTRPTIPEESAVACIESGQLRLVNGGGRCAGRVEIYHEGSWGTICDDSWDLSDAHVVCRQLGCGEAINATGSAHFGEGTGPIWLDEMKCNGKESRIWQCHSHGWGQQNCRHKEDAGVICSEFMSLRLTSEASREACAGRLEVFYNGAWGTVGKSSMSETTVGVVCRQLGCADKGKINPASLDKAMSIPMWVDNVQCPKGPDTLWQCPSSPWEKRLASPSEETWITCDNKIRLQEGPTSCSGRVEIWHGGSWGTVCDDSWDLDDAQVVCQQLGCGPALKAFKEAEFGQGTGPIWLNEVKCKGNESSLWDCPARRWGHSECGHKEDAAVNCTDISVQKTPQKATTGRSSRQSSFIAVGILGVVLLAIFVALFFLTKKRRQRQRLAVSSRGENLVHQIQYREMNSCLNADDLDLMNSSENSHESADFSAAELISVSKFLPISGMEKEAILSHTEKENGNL

Row | Binder | EC50 of PBMC mediated cytotoxicity in CD163 expressing macrophages [ng/mL]
21 | B3 | 2.8
22 | B5 | 2.6
